Patent US20220227875A1 (UNIVERSITY OF FLORIDA RESEARCH FOUNDATION, published 2022)

What was measured:
[1] = target: human thyroid-stimulating hormone receptor (TSHR) (human) (UniProt P16473); assay: cell-based or functional assay
[2] = target: human thyroid-stimulating hormone receptor (TSHR) (human, UniProt P16473 21-764); assay: cell-based or functional assay

Row | Molecule | cAMP levels in HEK-TSHR cells, EC50 [1] [ng/mL] | inhibition of M22 (100 ng/ml)-induced cAMP in HEK-TSHR cells, IC50 [2] [µg/mL] | inhibition of TSH (150 ng/ml)-induced cAMP in HEK-TSHR cells, IC50 [2] [µg/mL]
1 | recombinant thyroid-stimulating hormone (TSH) (ligand) | 168 |  | 
2 | thyroid-stimulating antibody M22 | 42500 |  | 
3 | K1-70 thyroid blocking antibody (commercially available K1-70 antibody) (antibody, V domains shown) VH: EVQLVQSGAEVKKPGQSLKISCKASGYSLTDNWIGWVRQKPGKGLEWMGIIYPGDSDTRYSPSFQGQVTISADKSINTAYLQWSSLKASDTAIYYCVGLDWNYNPLRYWGPGTLVTVSS VL: QSVLTQPPSVSAAPGQKVTISCSGSSSDIGSNYVSWYQQFPGTAPKLLIYDNNKRPSAIPDRFSGSKSGTSATLGITGLQTGDEADYYCGTWDSRLGIAVFGGGTQLTVLG |  | 1.38 | 1.18
